This passage reports Kd and koff results from paper PMC4712133 (2016).

The Kd is a measure of binding affinity in units of concentration. One may read the koff as the first-order rate constant of dissociation.

Experiment [1] concerns the target T1, osteopontin (OPN), recombinant human (human, UniProt P10451 17-314). Put plainly: SPR. (In general: SPR reads the build-up and loss of mass on a sensor chip optically.)
Experiment [2] has as its target T1, osteopontin (OPN), recombinant human. Put plainly: SPR. This is another data set of the same source.

No end group written: not given here.

T1 sequence (P10451 17-314): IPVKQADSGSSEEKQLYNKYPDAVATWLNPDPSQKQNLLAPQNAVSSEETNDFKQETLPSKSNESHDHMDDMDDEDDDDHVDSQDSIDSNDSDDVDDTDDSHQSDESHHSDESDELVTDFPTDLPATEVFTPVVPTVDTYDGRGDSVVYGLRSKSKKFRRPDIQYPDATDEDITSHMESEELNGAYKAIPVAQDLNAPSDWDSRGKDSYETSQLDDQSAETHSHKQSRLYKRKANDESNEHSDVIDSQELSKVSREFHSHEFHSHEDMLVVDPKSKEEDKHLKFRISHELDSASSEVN

B1: lactoferrin purified from human milk (natural protein)
chain: GRRRSVQWCAVSQPEATKCFQWQRNMRKVRGPPVSCIKRDSPIQCIQAIAENRADAVTLDGGFIYEAGLAPYKLRPVAAEVYGTERQPRTHYYAVAVVKKGGSFQLNELQGLKSCHTGLRRTAGWNVPIGTLRPFLNWTGPPEPIEAAVARFFSASCVPGADKGQFPNLCRLCAGTGENKCAFSSQEPYFSYSGAFKCLRDGAGDVAFIRESTVFEDLSDEAERDEYELLCPDNTRKPVDKFKDCHLARVPSHAVVARSVNGKEDAIWNLLRQAQEKFGKDKSPKFQLFGSPSGQKDLLFKDSAIGFSRVPPRIDSGLYLGSGYFTAIQNLRKSEEEVAARRARVVWCAVGEQELRKCNQWSGLSEGSVTCSSASTTEDCIALVLKGEADAMSLDGGYVYTAGKCGLVPVLAENYKSQQSSDPDPNCVDRPVEGYLAVAVVRRSDTSLTWNSVKGKKSCHTAVDRTAGWNIPMGLLFNQTGSCKFDEYFSQSCAPGSDPRSNLCALCIGDEQGENKCVPNSNERYYGYTGAFRCLAENAGDVAFVKDVTVLQNTDGNNNEAWAKDLKLADFALLCLDGKRKPVTEARSCHLAMAPNHAVVSRMDKVERLKQVLLHQQAKFGRNGSDCPDKFCLFQSETKNLLFNDNTECLARLHGKTTYEKYLGPQYVAGITNLKKCSTSPLLEACEFLRK
Consider B1, for which the Kd in experiment [1] amounted to 2500 nM. For the same molecule, the koff in experiment [2] turned out to be 0.01 s⁻¹.

B2: midkine (natural protein)
chain: VAKKKDKVKKGGPGSECAEWAWGPCTPSSKDCGVGFREGTCGAQTQRIRCRVPCNWKKEFGADCKYKFENWGACDGGTGTKVRQGTLKKARYNAQCQETIRVTKPCTPKTKAKAKAKKGKGKD
Turning to B2, in experiment [1], the Kd was found to be 27 nM. For GIINTLQKYYCRVRGGRCAVLSCLPKEEQIGKCSTRGRKCCRRKK (natural protein, ends and bridges not checked; cysteine pairing not given here) [human beta defensin-3 (hBD-3)], the Kd in experiment [1] was 790 nM. Moreover, the koff in experiment [2] turned out to be 0.02 s⁻¹.

B3: secretory leukocyte peptidase inhibitor (SLPI), recombinant human (natural protein)
chain: SGKSFKAGVCPPKKSAQCLRYKKPECQSDWQCPGKKRCCPDTCGIKCLDPVDTPNPTRRKPGKCPVTYGQCLMLNPPNFCEMDGQCKRDLKCCMGMCGKSCVSPVKA
Consider B3, for which the Kd in experiment [1] was 430 nM. The koff in experiment [2] is 0.0016 s⁻¹.
